Results: patent US20130251703A1 (Novartis, published 2013)
Numbering of substitutions follows the chain as printed.

B1: MOR12615 (antibody, human IgG1, lambda, V domains shown)
VH: QVQLVQSGAEVKKPGASVKVSCKASGYTFTSYDIHWVRQAPGQGLEWMGRIDPYSGNTNYAQKFQGRVTMTRDTSISTAYMELSRLRSEDTAVYYCARGSFYTRDSYFDVWGQGTLVTVSS
VL: DIALTQPASVSGSPGQSITISCTGTSSDVGTYNQVSWYQQHPGKAPKLMIYGVSKRPSGVSNRFSGSKSGNTASLTISGLQAEDEADYYCSSRDLIGHYVFGGGTKLTVLG
notes: Tested as IgG
B2: MOR12604 (antibody, V domains shown)
VH: QVQLVQSGAEVKKPGSSVKVSCKASGGTFSSYAISWVRQAPGQGLEWMGLIIPRYGKARYAQKFQGRVTITADESTSTAYMELSSLRSEDTAVYYCARNWPYYYMDFWGQGTLVTVSS
VL: DIVLTQSPATLSLSPGERATLSCRASQNIVFNLAWYQQKPGQAPRLLIYDASNRATGVPARFSGSGSGTDFTLTISSLEPEDFAVYYCQQKKSMPLTFGQGTKVEIKR
notes: Tested as IgG
B3: MOR14533 (antibody, human IgG1, kappa, V domains shown)
VH: B2 VH
VL: EIVLTQSPATLSLSPGERATLSCRASQNIVFNLAWYQQKPGQAPRLLIYDASNRATGIPARFSGSGSGTDFTLTISSLEPEDFAVYYCQQTKSKPSPTFGQGTKVEIKR
notes: Tested as IgG
B4: MOR14534 (antibody, human IgG1, kappa, V domains shown)
VH: B2 VH
VL: B2 VL with D1E, V58I, K91T, S93N, M94R, L96P
notes: Tested as IgG

Columns and labels:
[1] = molecular target: T1, Hu HER3: CD33-[Human HER3, residues 20-640]-TAG (human, UniProt P21860 20-640); experiment: solution equilibrium titration (SET), IgG, ECL read-out
T1 construct: also called hu HER3-Tag; HER3-Tag; not shown: C-terminal TAG (e.g. FLAG TAG)

[2] = molecular target: T2, Cyno HER3: CD33-[Cyno HER3, residues 20-643]-TAG (cynomolgus monkey, UniProt G7PIG5 20-643); experiment: as above
T2 construct: also called cy HER3-Tag; not shown: C-terminal TAG (e.g. FLAG TAG)

[3] = molecular target: T3, Rat HER3: CD33-[Rat HER3, residues 20-643]-TAG (rat, UniProt Q62799 20-643); experiment: as above
T3 construct: also called ra HER3-Tag; not shown: C-terminal TAG (e.g. FLAG TAG)

[4] = molecular target: T4, Mu HER3: CD33-[Murine HER3, residues 20-643]-TAG (mouse, UniProt Q61526 20-643); experiment: as above
T4 construct: also called mu HER3-Tag; not shown: C-terminal TAG (e.g. FLAG TAG)

[5] = molecular target: T5, human HER3 endogenously expressed on human cancer cells (SK-Br-3, BT-474, MCF7) (human, UniProt P21860 20-1342); experiment: cell-based or functional assay
[6] = molecular target: T5, human HER3 endogenously expressed on …; experiment: cell-based or functional assay; remark: listed apart in the source
[7] = molecular target: T6, HER3 D2: CD33-[Human HER3, residues 185-329]-TAG (human, UniProt P21860 185-329); experiment: HER3 domain binding ELISA: recombinant protein coated on the plate, antibody titrated; the y axis reads 'Fluorescence Units'
T6 construct: also called D2-Tag; domain 2; not shown: C-terminal TAG (e.g. FLAG TAG)
Method: (§1) All wells were then washed with PBS/0.1% Tween-20, blocked with PBS/1% BSA/0.1% Tween-20 and washed with PBS/0.1% Tween-20. Anti-HER3 antibodies were added to the relevant wells up to a final concentration of 10 μg/mL and incubated at room temperature. Plates were washed with PBS/0.1% Tween-20 prior to the addition of the appropriate peroxidase linked detection antibody diluted 1/10000 in PBS/1% BSA/0.1% Tween-20. The detection antibodies used were goat anti-mouse (Pierce, 31432), rabbit anti-goat (Pierce, 31402) and goat anti-human (Pierce, 31412). Plates were incubated at room temperature before washing with PBS/0.1% Tween-20. 100 μl TMB (3,3′,5,5′ tetramethyl benzidine) substrate solution (BioFx) was added to all wells before stopping the reaction with 50 μl 12.5% H₂SO₄. […] Where appropriate, dose response curves were analyzed using Graphpad Prism.

[8] = molecular target: T7, HER3 D1-2: CD33-[Human HER3, residues 20-329]-TAG (human, UniProt P21860 20-329); experiment: as above
T7 construct: also called D1-2-Tag; domains 1 and 2; not shown: C-terminal TAG (e.g. FLAG TAG)
Method: as §1

[9] = molecular target: T5, human HER3 endogenously expressed on …; experiment: cell-based or functional assay; remark: listed apart in the source
[10] = molecular target: T5, human HER3 endogenously expressed on …; experiment: FACS titration of IgG on SK-Br-3 cells (endogenous HER3)
Method: The binding of antibodies to endogenous human antigen expressed on human cancer cells was accessed by FACS. In order to determine antibody EC₅₀ values SK-Br-3 cells were harvested with accutase and diluted to 1×10⁶ cells/mL in FACS buffer (PBS/3% FBS/0.2% NaN₃). 1×10⁵ cells/well were added to each well of a 96-well plate (Nunc) and centrifuged at 210 g for 5 minutes at 4° C. before removing the supernatant. Serial dilutions of test antibodies (diluted in 1:4 dilution steps with FACS buffer) were added to the pelleted cells and incubated for 1 hour on ice. The cells were washed and pelleted three times with […] FACS buffer. PE conjugated goat anti-human IgG (Jackson ImmunoResearch) diluted 1/200 with FACS buffer were added to the cells and incubated on ice for 1 hour. Additional washing steps were performed three times with 100 μL FACS buffer followed by centrifugation steps at 210 g for 5 minutes at 4° C. Finally, cells were resuspended in 200 μL FACS buffer and fluorescence values were measured with a FACSArray (BD Biosciences). The amount of cell surface bound anti-HER3 antibody was assessed by measuring the mean channel fluorescence.

Binder | Kd [1] [nM] | Kd [2] [nM] | Kd [3] [nM] | Kd [4] [nM] | BT-474 pAkt % inhibition [5] [%] | BT-474 pAkt IC50 [5] [pM] | MCF7 pAkt % inhibition [5] [%] | MCF7 pAkt IC50 [5] [pM] | SK-Br-3 pAkt % inhibition [5] [%] | SK-Br-3 pAkt IC50 [5] [pM] | BT474 pHER3 % inhibition [6] [%] | BT474 pHER3 IC50 [6] [pM] | MCF7 pHER3 % inhibition [6] [%] | MCF7 pHER3 IC50 [6] [pM] | SK-Br-3 pHER3 % inhibition [6] [%] | SK-Br-3 pHER3 IC50 [6] [pM] | binding result [7] | binding result [8] | SK-Br-3 proliferation % inhibition [9] [%] | SK-Br-3 proliferation IC50 [9] [nM] | further results
B1 | 0.102 | 0.257 | 0.31 | 0.336 | 63 | 466 | 78 | 815 | 86 | 101 | 56 | 421 | 75 | 447 | 71 | 179 | no binding (tested: 10 µg/ml) | no binding (tested: 10 µg/ml) | 40 | 0.121 | BT-474 proliferation % inhibition [9]: 35%; BT-474 proliferation IC50 [9]: 0.459 nM; MCF7 proliferation % inhibition [9]: 42%; MCF7 proliferation IC50 [9]: 2.54 nM
B2 | 1.1 | 2.2 | 5.2 | 1.9 | 70 | 225 | 74 | 235 | 85 | 17 | 62 | 142 | 79 | 57 | 71 | 29 | no binding (tested: 10 µg/ml) | no binding (tested: 10 µg/ml) | 42 | 0.015 | MCF7 proliferation % inhibition [9]: 39%; MCF7 proliferation IC50 [9]: 0.073 nM
B3 | 0.64 | 2.95 | 9.65 | 2 | – | – | – | – | – | – | – | – | 67 | 50 | 68 | 20 | – | – | 46 | 0.026 | EC50 [10]: 0.042 nM
B4 | 2.15 | 6.35 | 30 | 4 | – | – | – | – | – | – | – | – | 71 | 16 | 63 | 10 | – | – | 40 | 0.027 | EC50 [10]: 0.028 nM
